These results are taken from paper PMC8910226.

The target in this experiment is F-actin (phalloidin-stabilized) (UniProt P68139). The experiment is described as follows: co-sedimentation; S1 fixed at 1.5 μM, phalloidin-stabilized F-actin 0-4 μM; rigor conditions (no nucleotide); 100 mM NaCl, 200 mM sodium phosphate pH 7, 5 mM MgCl2, 4 mM DTT; 15 min at 4 °C, 70,000 RPM 60 min 4 °C; SDS-PAGE densitometry of pellet, hyperbolic fit; Kd = F-actin concentration at half Bmax; N = 3.

What is called Kd is the concentration at which binding is half-saturated. Lower therefore signals higher affinity. Take “control myosin subfragment-1 (S1) motor domain, Drosophila indirect flight muscle myosin (domain or fragment)”: the Kd was determined as 1260 nM.
Then “R369H myosin subfragment-1 (S1) motor domain, Drosophila indirect flight muscle myosin (domain or fragment)”, with 1100 nM.
